Source: PMC9483092

Molecular target: DYK-tagged transmembrane serine protease 13 (TMPRSS13) stably expressed in HEK cells (HEK-T) (human) (UniProt Q9BYE2)
Assay: co-IP; competition: 20 µg recombinant spike S2 fragment added to HEK-T cells 2 h before IL4I1; read-out IL4I1 co-precipitated with TMPRSS13-DYK

UniProt Q9BYE2, sequence (Q9BYE2 other isoform, or with tags, fused parts or gaps): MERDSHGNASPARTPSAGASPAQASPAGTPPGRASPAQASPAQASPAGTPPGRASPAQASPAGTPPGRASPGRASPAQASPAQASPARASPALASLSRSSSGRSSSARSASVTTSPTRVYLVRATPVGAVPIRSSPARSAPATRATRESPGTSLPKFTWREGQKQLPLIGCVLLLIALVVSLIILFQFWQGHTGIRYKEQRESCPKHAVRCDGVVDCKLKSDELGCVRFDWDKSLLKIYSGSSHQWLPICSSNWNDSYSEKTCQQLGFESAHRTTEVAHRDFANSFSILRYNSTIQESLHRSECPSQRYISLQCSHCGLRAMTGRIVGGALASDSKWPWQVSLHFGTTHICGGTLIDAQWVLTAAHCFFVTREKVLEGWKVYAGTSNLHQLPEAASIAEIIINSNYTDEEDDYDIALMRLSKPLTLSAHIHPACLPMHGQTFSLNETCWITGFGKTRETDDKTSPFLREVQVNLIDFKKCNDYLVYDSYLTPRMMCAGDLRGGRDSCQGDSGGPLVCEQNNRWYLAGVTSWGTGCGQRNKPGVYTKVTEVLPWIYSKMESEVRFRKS

Substance “recombinant S2 fragment of the SARS-CoV-2 spike protein (domain or fragment)” has a percent decrease of IL4I1 binding to TMPRSS13 with 20 µg S2 per 80 µg IL4I1 of 50%.
